Measurements taken from patent US20150038408A1 (University of Washington, published 2015).
Read-outs that look alike come from different tables or passages of the source.

Assays:
[1] = target: T1, A/South Carolina/1/1918 (H1N1) hemagglutinin ectodomain (Influenza A virus A/South …); experiment: yeast surface display titration
[2] = target: T1, A/South Carolina/1/1918 (H1N1) …; experiment: yeast surface display titration; remark: listed apart in the source

Binder	binding result [1]	binding result [2]
HB80.3_s4_E94 (designed binder) ASTRGSGRPWKFSENVAFELALYFTNKDTPDRWAKVARYVKGRTPEEVKKHYE	binds	–
HB36.4_s4_E11 (designed binder) MSNAMDGQQLNRLLLEWIGAWDPFGLGKDAYDVEADAVLKAVYETNSAFDLAMRIHWIYNFAFKRKIPFVHAQKLARRLLELKQAASSPLP	–	binds
HB80.3_s4_E82 (designed binder) MASTRGSGRPWKFSENVAFEIALSFTNKDTPDRWAKVARYVRGRTPEEVKKHYE	binds	–
